Measured values from patent US10081667B2, “Composition and method for therapeutic agent delivery during pregnancy” (University of Mississippi Medical Center, priority 2013, dated 2018).
Where two headings read alike, the source gives them in different places. Where no end group is shown, it is not given here.

Tests used:
[1] = Pharmacokinetics and biodistribution of SynB1-ELP-p50 versus free p50 peptide in pregnant rats
[2] = test system: human umbilical vein endothelial cells (HUVECs); test: HUVEC proliferation, MTS cell proliferation assay; type: cell-based; conditions: 72 h exposure
Procedure: FIG. 9 is a bar graph showing ELP-VEGF stimulation of HUVEC proliferation. HUVEC cell proliferation was determined after 72 h exposure to ELP, VEGF, or ELP-VEGF at the indicated concentrations using the MTS cell proliferation assay.
Proliferation of human umbilical vein endothelial cells (HUVECs) is stimulated when the cell are exposed to VEGF.

[3] = ELP-VEGF pharmacokinetics and biodistribution in mice after bolus IV; type: in vivo, C57/B16 mice
Procedure: FIG. 12 includes graphs showing ELP-VEGF pharmacokinetics and biodistribution. FIG. 12A. Fluorescently labeled free VEGF or ELP-VEGF were administered by IV injection to C57/B16 mice. Plasma levels were determined by direct fluorescence quantitation and fit to a two-compartment pharmacokinetic model. FIG. 12B. […] FIG. 12D.
In addition to examining the ELP-VEGF activity in vitro, the pharmacokinetics (PK) and biodistribution of ELP-VEGF in comparison to free VEGF121 is also determined. Both free VEGF121 and ELP-VEGF were fluorescently labeled, and their PK and biodistribution were determined in mice after bolus intravenous administration. […] This is consistent with other reports of approximately a 30 minute half-life for recombinant VEGF in humans. ELP-VEGF cleared more slowly than free VEGF121 (FIG. 12A). […] Four hours after the infusion, the biodistribution was determined by ex vivo whole organ fluorescence imaging.

[4] = rat, in vivo
[5] = Biodistribution of fluorescently labeled ELP / SynB1-ELP in pregnant rats after IV bolus (ex vivo imaging, frozen sections); design: species or system Sprague Dawley rats
Procedure: FIG. 2 includes a series of images and a graph showing the biodistribution of ELP in pregnant rats. FIG. 2A. The ELP drug carrier was labeled with AlexalFluor633 and infused into normal pregnant Sprague Dawley rats by IV injection (100 mg/kg). 4 h after injection, ex vivo images of placentas, pups, and major organs were collected using an IVIS Spectrum. FIG. 2B. Fluorescence intensity was quantified in all tissues. Error bars represent the standard deviation of 3 rats.
FIG. 3 includes a series of images and a graph illustrating placental distribution of ELP and SynB1-ELP. FIG. 3A. After IV administration of fluorescently-labeled polypeptides or saline control, placentas, pups, and major organs were removed and imaged ex vivo using an IVIS Spectrum. Polypeptide deposition in placentas and pups is shown. FIG. 3B. Fluorescence levels in placentas, pups, and major organs was quantified using Living Image software. Error bars represent the standard deviation of four rats per treatment group. FIG. 3C. Frozen sections of intact placentas and pups were cut, stained with the actin-specific rhodamine-phalloidin to allow visualization of the placenta and pups, and scanned using a florescence slide scanner. FIG. 3D. The same slides were imaged using a florescence microscope to visualize the cellular localization of the polypeptides in the placenta (100× magnification).
Pregnant Sprague Dawley rats on day 14 of gestation were injected with fluorescently labeled ELP (100 mg/kg IV). […] Placentas and pups were dissected from the amniotic sacks and imaged ex vivo using an IVIS Spectrum animal imager to detect and quantitate the ELP levels. […] In contrast, almost no ELP was detectable in the pups. The image intensities of the placentas, pups, and major organs were quantitated using Living Image software, and the results are shown in FIG. 2B. […] These high ELP levels in the placenta are unprecedented with this molecule. By way of comparison, the placenta levels are 2 to 10 fold higher than the tumors levels (Bidwell G L, et al., PloS One, 2013; Bidwell G L, 3rd, Cancer Lett., 2012).
This example also examined whether the addition of a CPP to ELP would affect its penetration across the placenta. SynB1-ELP was labeled with Alexa633 and injected as described above. For comparison, animals were injected with saline control or ELP-Alexa633 at an equivalent dose. Four hours after injection, placental, fetal, and organ levels were determined by ex vivo fluorescence imaging. […] In addition to the ex vivo fluorescence imaging, the fetal-amnio-placental complex was removed, rapidly frozen, and sectioned using a cryomicrotome. Tissue sections were stained with the actin-specific rhodamine-phalloidin to allow visualization of all tissue and imaged directly using a fluorescence slide scanner. […] The intraplacental distribution SynB1-ELP-Alexa633 differed slightly from ELP-Alexa633. […] Both polypeptides could be detected within the cells of the placenta when examined microscopically (FIG. 3D).

trophoblast cells = conditions: rat, in vivo
[6] = Plasma levels and biodistribution after chronic infusion by IP minipump GD14-GD19; type: in vivo, rats
Procedure: FIG. 7 includes images and graphs showing plasma levels and biodistribution of FLPs after Chronic Infusion. FIG. 7A. Rhodamine-labeled ELP or SynB1-ELP was administered chronically by IP minipump from GD14-GD19. Plasma was sampled throughout the experiment, and polypeptide levels were determined relative to standards of the injected protein. Data represent the mean±s.d. of four rats per group. FIG. 7B. Ex vivo fluorescence imaging of eight pups and corresponding placentas from one rat from each group is shown. FIG. 7C. Fluorescence intensities were quantified, corrected for autofluorescence, and fit to standards of the injected proteins. Data represent the mean±s.e. of eight placentas and eight pups per rat and four rats per group. *Statistically significant as determined by a two-way ANOVA with post-hoc Bonferroni multiple comparisons (p<0.05). **Levels were not detectable over autofluorescence.
Whether the fetal exclusion held after five days of continuous infusion of the polypeptides is also examined. ELP or SynB1-ELP was administered continuously from GD14 to GD19 using an IP minipump. […] At the dose used (30 mg/kg/day), the plasma levels were maintained at 33.94 μg/mL for ELP and 69.15 μg/mL for SynB1-ELP. These plasma levels are a reflection of many in vivo kinetic processes, including the rate of transport from the peritoneal fluid to the blood, the rate of extravasation from the blood to the tissues, and the plasma clearance rate. […] These plasma concentration data also provide useful information for the formulation of dosages when ELP is fused with therapeutic agents.
Ex vivo whole organ fluorescence analysis of the placentas is performed, pups, and organs on GD19 following five days of continuous polypeptide infusion. Relative to the acute experiment, the placental levels of the polypeptides were lower, which resulted from the difference in dose (100 mg/kg in the bolus dosing versus 30 mg/kg/day in the chronic infusion). […] The kidneys still accumulated the most polypeptide, followed by the liver and the placenta (FIG. 7C). […]

[7] = rat, in vivo; remark: listed apart in the source

With VQRKRQKLMP [p50 peptide] the “initial plasma levels relative to SynB1-ELP-p50 levels” value ([1]; 100 mg/kg single bolus, pregnant rats) was “about 100 fold lower”, the “entry into fetal circulation / pups” value ([1]; four hours after injection) was “freely entered the fetal circulation and was visible in the pups” and the “total placental levels relative to SynB1-ELP-p50” value ([1]; four hours after injection) was “thirty fold lower”.

B1: VEGF121: free recombinant vascular endothelial growth factor VEGF121, comparator (protein)
chain: MSKGPGVGVPGAGVPGGGVPGAGVPGGGVPGAGVPGGGVPGAGVPGGGVPGAGVPGGGVPGAGVPGGGVPGAGVPGGGVPGAGVPGVGVPGAGVPGGGVPGAGVPGGGVPGAGVPGGGVPGAGVPGGGVPGAGVPGGGVPGAGVPGGGVPGAGVPGGGVPGAGVPGVGVPGAGVPGGGVPGAGVPGGGVPGAGVPGGGVPGAGVPGGGVPGAGVPGGGVPGAGVPGGGVPGAGVPGGGVPGAGVPGVGVPGAGVPGGGVPGAGVPGGGVPGAGVPGGGVPGAGVPGGGVPGAGVPGGGVPGAGVPGGGVPGAGVPGGGVPGAGVPGVGVPGAGVPGGGVPGAGVPGGGVPGAGVPGGGVPGAGVPGGGVPGAGVPGGGVPGAGVPGGGVPGAGVPGGGVPGAGVPGVGVPGAGVPGGGVPGAGVPGGGVPGAGVPGGGVPGAGVPGGGVPGAGVPGGGVPGAGVPGGGVPGAGVPGGGVPGAGVPGVGVPGAGVPGGGVPGAGVPGGGVPGAGVPGGGVPGAGVPGGGVPGAGVPGGGVPGAGVPGGGVPGAGVPGGGVPGAGVPGVGVPGAGVPGGGVPGAGVPGGGVPGAGVPGGGVPGAGVPGGGVPGAGVPGGGVPGAGVPGGGVPGAGVPGGGVPGAGVPGVGVPGAGVPGGGVPGAGVPGGGVPGAGVPGGGVPGAGVPGGGVPGAGVPGGGVPGAGVPGGGVPGAGVPGGGVPGAGVPGVGVPGAGVPGGGVPGAGVPGGGVPGAGVPGGGVPGAGVPGGGVPGAGVPGGGVPGAGVPGGGVPGAGVPGGGVPGAGVPGWPGSGAPMAEGGGQNHHEVVKFMDVYQRSYCHPIETLVDIFQEYPDEIEYIFKPSCVPLMRCGGCCNDEGLECVPTEESNITMQIMRIKPHQGQHIGEMSFLQHNKCECRPKKDRARQEKCDKPRR
modifications: synthetic ELP-VEGF sequences
notes: free recombinant vascular endothelial growth factor VEGF121, comparator
With B1 the “stimulation of HUVEC proliferation” value [2] was “stimulated HUVEC proliferation with equal potency”, the terminal plasma half-life ([3]; bolus IV, 2-compartment PK model) was “approximately 30 minutes” and the “organ accumulation, ex vivo whole organ fluorescence imaging” value ([3]; four hours after the infusion) was “accumulated most highly in the kidneys and the liver”.

B2: ELP: elastin-like polypeptide drug carrier, repeats of VPGXG; unmodified carrier, fluorescently labeled for the tests (protein)
chain: VGVPGAGVPGGGVPGAGVPGGGVPGAGVPGGGVPGAGVPGGGVPGAGVPGGGVPGAGVPGGGVPGAGVPGGGVPGAGVPGVGVPGAGVPGGGVPGAGVPGGGVPGAGVPGGGVPGAGVPGGGVPGAGVPGGGVPGAGVPGGGVPGAGVPGGGVPGAGVPGVGVPGAGVPGGGVPGAGVPGGGVPGAGVPGGGVPGAGVPGGGVPGAGVPGGGVPGAGVPGGGVPGAGVPGGGVPGAGVPGVGVPGAGVPGGGVPGAGVPGGGVPGAGVPGGGVPGAGVPGGGVPGAGVPGGGVPGAGVPGGGVPGAGVPGGGVPGAGVPGVGVPGAGVPGGGVPGAGVPGGGVPGAGVPGGGVPGAGVPGGGVPGAGVPGGGVPGAGVPGGGVPGAGVPGGGVPGAGVPGVGVPGAGVPGGGVPGAGVPGGGVPGAGVPGGGVPGAGVPGGGVPGAGVPGGGVPGAGVPGGGVPGAGVPGGGVPGAGVPGVGVPGAGVPGGGVPGAGVPGGGVPGAGVPGGGVPGAGVPGGGVPGAGVPGGGVPGAGVPGGGVPGAGVPGGGVPGAGVPGVGVPGAGVPGGGVPGAGVPGGGVPGAGVPGGGVPGAGVPGGGVPGAGVPGGGVPGAGVPGGGVPGAGVPGGGVPGAGVPGGGVPGAGVPGGGVPGAGVPGGGVPGAGVPGGGVPGAGVPGGGVPGAGVPGGGVPGAGVPGGGVPGAGVPGGGVPGAGVPGVGVPGAGVPGGGVPGAGVPGGGVPGAGVPGGGVPGAGVPGGGVPGAGVPGGGVPGAGVPGGGVPGAGVPGGGVPGAGVPG
modifications: Alexa633 label; synthetic ELP
notes: elastin-like polypeptide drug carrier, repeats of VPGXG; unmodified carrier, fluorescently labeled for the tests
For B2, the level in pups [4] was “Neither peptide was detectable in the pups”, the “placental accumulation relative to other organs” value ([5]; 4 h after 100 mg/kg IV) was “nearly equivalent to levels in the liver” and the “level in pups, ex vivo fluorescence imaging” value ([5]; 4 h after 100 mg/kg IV, GD14) was “barely detectable over autofluorescence in the pups”. For the same molecule, the “placental accumulation, ex vivo fluorescence imaging” value ([5]; 4 h after 100 mg/kg IV, GD14) was “accumulated strongly in the placenta”, the “placental accumulation, frozen sections, fluorescence slide scanner” value ([5]; 4 h after IV injection) was “accumulated at high levels in the placenta relative to autofluorescence controls” and the “polypeptide in pups, frozen sections, fluorescence slide scanner” value ([5]; 4 h after IV injection) was “no polypeptide was detectable in the pups”. The intraplacental distribution ([5]; frozen sections) was “accumulated at high levels throughout the placenta”, the half-life ([5]; pregnant rats GD14, 100 mg/kg IV) was “Four hours after injection, which is about one half-life” and the “accumulation in trophoblast cells” value (trophoblast cells) was “accumulated in the cytoplasm of trophoblast cells”. For the same molecule, the “polypeptide in interior of chorionic villi (fetal blood)” value (trophoblast cells) was “contained no ELP or SynB1-ELP”, the “steady state plasma level” value ([6]; 30 mg/kg/day IP minipump GD14-GD19) was 33.94 µg/mL and the placental accumulation ([6]; GD19, five days continuous infusion) was “accumulated at high levels in the placenta”. For the same molecule, the level in pups ([6]; GD19, five days continuous infusion, 30 mg/kg/day) was “undetectable over autofluorescence in the pups” and the “total signal in degraded bands <50 kDa” value [7] was “less than 20%”.
